Reference: PMC9098913, “In vitro reconstitution of Escherichia coli divisome activation” (Nature Communications, 2022)

Tests used:
FtsA self-interaction [1] = experiment: FRET (acceptor photobleaching) self-interaction of FtsA on supported lipid bilayers; type: binding, E. coli
From the text: To directly measure FtsA self-interaction in our fluorescence microscopy experiments, we established a FRET (Förster resonance energy transfer)-based assay using FtsA labelled with either Cy5 (acceptor) or Cy3 (donor). […] We then decided to use this approach to measure the degree of FtsA self-interaction on supported lipid membranes by quantifying the increase in donor fluorescence after photobleaching the acceptor fluorophore[30]–[32] (Fig. 3c–e and Fig. S3d). […] As a negative control, we also attached the Hexahistidine-SUMO-tag (His-SUMO) labelled with Cy5 and Cy3 to membranes with an increasing density of Tris-NTA lipids.
Equimolar concentrations of Cy3- and Cy5-labelled FtsA, supplemented with 20% unlabelled FtsA were used to study FRET and FRAP. Five pre-bleach frames were acquired, followed by acceptor photobleaching of a rectangular ROI with 40% 641 nm laser power and a dwell size of 1 µs/pixel, 75% overlapping lines. The recovery of the signal or the increase in donor intensity were measured with either two frames or one frame per second.
(§1) Bleaching the acceptor dye leads to an increase in the donor intensity, which can be used to quantify the Foerster Resonance energy transfer (FRET)[48]. FRET efficiency was quantified with E%=Ipost/Ipost+Ipre⋅100 , where Ipost is the intensity of the […] and Ipre is the […]. […] To extract the contribution of both processes, we adjusted a routine recently published by Gerganova et al.[33]. In short, the code provides the contribution of both modes of recovery by analysing the shape of the fluorescence recovery profile. […] Contribution of diffusion leads to a change of the slope of the outer borders of the bleached region (S4h right). Thus, by measuring the change of the slope of the border recovery, diffusion and simple on/off binding can be distinguished. We developed “FRAPdiff”, a graphical user interface, which uses the original fit routine by David Rutkowski. It can be used directly on.tiff movies with annotated bleach regions as ImageJ ROIs. In addition, we added optional bleach correction, user selectable projection axis (x or y), and optional mirroring of the recovery profiles, if bleaching was not symmetric. The original fit routine for estimating the recovery and diffusion dynamics can be found at https://github.com/davidmrutkowski/1DReflectingDiffusion. FRAPdiff is available at 10.5281/zenodo.6400639[49] under the GPLv3 open-source license.

[2] = molecular target: the molecule itself; experiment: FRET or BRET; acceptor photobleaching; equimolar Cy3- and Cy5-labelled His-tagged protein (total 0.5-1 µM, washed) attached to bilayers with varied Tris-NTA lipid density
FtsA self-interaction [3] = experiment: FRET self-interaction of His-tagged FtsAs (and His-SUMO control) on Tris-NTA membranes; type: binding, E. coli; conditions: without FtsZ
Method: (§2) To study colocalization of His-tagged variants of FtsA, 0.5–1 µM of Cy5 labelled His-tagged FtsAs were added to the chamber, incubated for 20 min and washed 6x with reaction buffer. […] To control the density of membrane-bound FtsA, SUVs without and with Tris-NTA lipids were mixed to obtain the respective Tris-NTA concentrations. To perform FRET/FRAP experiments, equimolar concentrations of Cy3 and Cy5 labelled His-tagged FtsAs (total 0.5–1 µM) or His-SUMO-Cys were added to a chamber and treated as above. […] FRAP experiments were performed as described before.
as §1

[4] = Diffusion coefficient of His-tagged FtsAs and His-SUMO on Tris-NTA membranes (FRAP); conditions: without FtsZ
Method: as §2, §1

## Nc1ncnc2c1ncn2[C@@H]1O[C@H](CO[P@](=O)(O)O[P@](=O)(O)O[P@@](=O)(O)S)[C@@H](O)[C@H]1O [ATPγS, reference compound]
FtsA self-interaction [1]
  effect of replacing ATP with ATPγS on membrane-binding, self-interaction or membrane-binding dynamics: no significant effect

B1: FtsA WT (1-405)-6xHis (domain or fragment, E. coli, UniProt P0ABH0 1-405, looked up)
chain: MIKATDRKLVVGLEIGTAKVAALVGEVLPDGMVNIIGVGSCPSRGMDKGGVNDLESVVKCVQRAIDQAELMADCQISSVYLALSGKHISCQNEIGMVPISEEEVTQEDVENVVHTAKSVRVRDEHRVLHVIPQEYAIDYQEGIKNPVGLSGVRMQAKVHLITCHNDMAKNIVKAVERCGLKVDQLIFAGLASSYSVLTEDERELGVCVVDIGGGTMDIAVYTGGALRHTKVIPYAGNVVTSDIAYAFGTPPSDAEAIKVRHGCALGSIVGKDESVEVPSVGGRPPRSLQRQTLAEVIEPRYTELLNLVNEEILQLQEKLRQQGVKHHLAAGIVLTGGAAQIEGLAACAQRVFHTQVRIGAPLNITGLTDYAQEPYYSTAVGLLHYGKESHLNGEAEVEKRVTASV
modifications: Cy3 or Cy5 at the N-terminus in the labelled form (sortagging as for native FtsA)
notes: FtsA, E. coli, residues 1-405; plasmid pNB4; Attached to membranes through Tris-NTA lipids by its His tag; also called FtsA-His6; FtsA WT-His6; source: E. coli BL21, purified (as native FtsA); not shown: TwinStrep-SUMO, N-terminal, cleaved; 5xGlycine tag, N-terminal, kept; His6, C-terminal, kept
[2]
  binding result: binds

B2: His6-SUMO (protein, UniProt Q12306 2-98, looked up)
Ubiquitin-like protein SMT3: SDSEVNQEAKPEVKPEVKPETHINLKVSDGSSEIFFKIKKTTPLRRLMEAFAKRQGKEMDSLRFLYDGIRIQADQTPEDLDMEDNDIIEAHREQIGG
modifications: His6 tag
FtsA self-interaction [3]; 0.1% Tris NTA, Exp1
  FRET efficiency: 1.02%
FtsA self-interaction [3]; 0.1% Tris NTA, Exp2
  FRET efficiency: 1.41%
FtsA self-interaction [3]; 0.1% Tris NTA, mean, n = 2
  FRET efficiency: 1.21%
FtsA self-interaction [3]; 0.4% Tris NTA, Exp1
  FRET efficiency: 1.31%
FtsA self-interaction [3]; 0.4% Tris NTA, Exp2
  FRET efficiency: 1.55%
FtsA self-interaction [3]; 0.4% Tris NTA, Mean, n = 2
  FRET efficiency: 1.43%
FtsA self-interaction [3]; 0.6% Tris NTA, Exp1
  FRET efficiency: 0.86%
FtsA self-interaction [3]; 0.6% Tris NTA, Exp2
  FRET efficiency: 0.95%
FtsA self-interaction [3]; 0.6% Tris NTA, Mean, n = 3 (His6-SUMO n = 2)
  FRET efficiency: 0.91%
FtsA self-interaction [3]; 0.8% Tris NTA, Exp1
  FRET efficiency: 0.27%
FtsA self-interaction [3]; 0.8% Tris NTA, Exp2
  FRET efficiency: 0.30%
FtsA self-interaction [3]; 0.8% Tris NTA, Mean, n = 3 (His6-SUMO n = 2)
  FRET efficiency: 0.29%
FtsA self-interaction [3]; 1% Tris NTA, Exp1
  FRET efficiency: 0.57%
FtsA self-interaction [3]; 1% Tris NTA, Exp2
  FRET efficiency: 0.59%
FtsA self-interaction [3]; 1% Tris NTA, Exp3
  FRET efficiency: 0.56%
FtsA self-interaction [3]; 1% Tris NTA, Mean, n = 3 (R286W-His6 n = 4)
  FRET efficiency: 0.57%
FtsA self-interaction [3]; 2% Tris NTA, Exp1
  FRET efficiency: 0.56%
FtsA self-interaction [3]; 2% Tris NTA, Exp2
  FRET efficiency: 0.41%
FtsA self-interaction [3]; 2% Tris NTA, Mean, n = 2
  FRET efficiency: 0.49%
FtsA self-interaction [3]; Tris 0.40 %, mean
  FRET efficiency: 1.43%
FtsA self-interaction [3]; Tris 0.60 %, mean
  FRET efficiency: 0.91%
FtsA self-interaction [3]; Tris 0.80 %, mean
  FRET efficiency: 0.28%
FtsA self-interaction [3]; Tris 1.00 %, mean
  FRET efficiency: 0.57%
FtsA self-interaction [3]; Tris 2.00 %, mean
  FRET efficiency: 0.49%
FtsA self-interaction [3]; […] Tris NTA, Exp1
  FRET efficiency: 1.47%
FtsA self-interaction [3]; […] Tris NTA, Exp2
  FRET efficiency: 1.00%
FtsA self-interaction [3]; […] Tris NTA, mean, n = 2
  FRET efficiency: 1.23%
[4]; 0.1% Tris NTA, replicate Exp1
  Diffusion Coefficient: 0.47 µm2/s
[4]; 0.1% Tris NTA, replicate Exp2
  Diffusion Coefficient: 0.69 µm2/s
[4]; 0.4% Tris NTA, replicate Exp1
  Diffusion Coefficient: 0.55 µm2/s
[4]; 0.4% Tris NTA, replicate Exp2
  Diffusion Coefficient: 0.53 µm2/s
[4]; 0.4% Tris NTA, replicate Exp3
  Diffusion Coefficient: 0.48 µm2/s
[4]; 0.6% Tris NTA, replicate Exp1
  Diffusion Coefficient: 0.58 µm2/s
[4]; 0.6% Tris NTA, replicate Exp2
  Diffusion Coefficient: 0.54 µm2/s
[4]; 0.6% Tris NTA, replicate Exp3
  Diffusion Coefficient: 0.58 µm2/s
[4]; 0.6% Tris NTA, replicate Exp4
  Diffusion Coefficient: 0.63 µm2/s
[4]; 0.8% Tris NTA, mean
  Diffusion Coefficient: 0.52 µm2/s
[4]; 0.8% Tris NTA, replicate Exp1
  Diffusion Coefficient: 0.56 µm2/s
[4]; 0.8% Tris NTA, replicate Exp2
  Diffusion Coefficient: 0.53 µm2/s
[4]; 0.8% Tris NTA, replicate Exp3
  Diffusion Coefficient: 0.48 µm2/s
[4]; 0.8% Tris NTA, replicate Exp4
  Diffusion Coefficient: 0.52 µm2/s
[4]; 1% Tris NTA, mean
  Diffusion Coefficient: 0.57 µm2/s
[4]; 1% Tris NTA, replicate Exp1
  Diffusion Coefficient: 0.45 µm2/s
[4]; 1% Tris NTA, replicate Exp2
  Diffusion Coefficient: 0.57 µm2/s
[4]; 1% Tris NTA, replicate Exp3
  Diffusion Coefficient: 0.66 µm2/s
[4]; 1% Tris NTA, replicate Exp4
  Diffusion Coefficient: 0.60 µm2/s
[4]; 1% Tris NTA, replicate Exp5
  Diffusion Coefficient: 0.57 µm2/s
[4]; 1% Tris NTA, replicate Exp6
  Diffusion Coefficient: 0.68 µm2/s
[4]; 1% Tris NTA, replicate Exp7
  Diffusion Coefficient: 0.62 µm2/s
[4]; 1% Tris NTA, replicate Exp8
  Diffusion Coefficient: 0.43 µm2/s
[4]; Tris 0.10 %
  Diffusion Coefficient: 0.58 µm2/s
[4]; Tris 0.40 %
  Diffusion Coefficient: 0.52 µm2/s
[4]; Tris 0.60 %
  Diffusion Coefficient: 0.58 µm2/s
[4]; Tris 0.80 %
  Diffusion Coefficient: 0.52 µm2/s
[4]; Tris 1.00 %
  Diffusion Coefficient: 0.57 µm2/s
[4]; Tris 2.00 %
  Diffusion Coefficient: 0.58 µm2/s
[4]; Tris […]
  Diffusion Coefficient: 0.56 µm2/s
[4]; […] Tris NTA, mean (n: WT 2, R286W 3, SUMO 3)
  Diffusion Coefficient: 0.56 µm2/s
[4]; […] Tris NTA, replicate Exp1
  Diffusion Coefficient: 0.47 µm2/s
[4]; […] Tris NTA, replicate Exp2
  Diffusion Coefficient: 0.67 µm2/s
[4]; […] Tris NTA, replicate Exp3
  Diffusion Coefficient: 0.53 µm2/s
